Target: T1, fluorescently tagged eIF2Bβδγε tetramer (eIF2Bβδγε-F) (human, UniProt P49770 2-351; Q9UI10 1-523; Q9NR50 1-452; Q13144 1-721)
T1 construct: eIF2Bβ (eIF2B subunit beta), human; eIF2Bδ (eIF2B subunit delta), human; eIF2Bγ (eIF2B subunit gamma), human; eIF2Bε (eIF2B subunit epsilon), human; also called eIF2Bβγδε-F; tagged tetramers; source: E. coli, co-expression of pMS029 and pJT074, purified as previously described (Tsai et al., 2018); not shown: mNeonGreen with (GS)5 linker, C-terminal, kept; mScarlet-i with (GS)5 linker, C-terminal, …
Test: FRET or BRET; in vitro equilibrium FRET (E592/E516), 50 nM eIF2Bβδγε-F with a titration of eIF2Bα2, 1 hr, room temperature, 20 mM HEPES-KOH pH 7.5, 100 mM KCl, 5 mM MgCl2, 1 mM TCEP, 0.5% DMSO
Details: both partners purified

T1 sequence (P49770 2-351, stated change not applied, chain 1 of 4): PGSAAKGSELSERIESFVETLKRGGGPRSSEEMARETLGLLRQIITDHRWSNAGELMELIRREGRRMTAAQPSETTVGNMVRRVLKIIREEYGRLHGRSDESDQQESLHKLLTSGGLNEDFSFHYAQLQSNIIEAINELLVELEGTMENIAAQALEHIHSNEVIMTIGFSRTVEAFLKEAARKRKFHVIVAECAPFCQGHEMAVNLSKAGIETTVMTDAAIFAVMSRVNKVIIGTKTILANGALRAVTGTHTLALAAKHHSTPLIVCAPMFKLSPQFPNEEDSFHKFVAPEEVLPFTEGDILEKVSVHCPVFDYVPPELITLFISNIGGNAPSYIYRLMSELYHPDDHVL
T1 sequence (Q9UI10 whole entry, stated change not applied, chain 2 of 4): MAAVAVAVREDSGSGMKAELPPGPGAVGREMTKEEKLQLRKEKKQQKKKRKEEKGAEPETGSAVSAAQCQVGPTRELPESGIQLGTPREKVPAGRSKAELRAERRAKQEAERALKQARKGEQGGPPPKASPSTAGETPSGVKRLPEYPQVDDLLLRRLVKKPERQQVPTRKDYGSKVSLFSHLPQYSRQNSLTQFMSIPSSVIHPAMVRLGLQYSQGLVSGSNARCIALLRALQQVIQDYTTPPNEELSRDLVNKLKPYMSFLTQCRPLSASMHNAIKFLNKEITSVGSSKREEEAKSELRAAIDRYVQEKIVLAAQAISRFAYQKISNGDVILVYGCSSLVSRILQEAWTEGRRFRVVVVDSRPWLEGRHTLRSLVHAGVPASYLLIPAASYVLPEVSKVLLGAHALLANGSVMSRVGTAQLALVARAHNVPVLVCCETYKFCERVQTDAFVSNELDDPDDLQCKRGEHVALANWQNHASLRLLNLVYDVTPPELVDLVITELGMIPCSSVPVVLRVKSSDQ
T1 sequence (Q9NR50 whole entry, stated change not applied, chain 3 of 4): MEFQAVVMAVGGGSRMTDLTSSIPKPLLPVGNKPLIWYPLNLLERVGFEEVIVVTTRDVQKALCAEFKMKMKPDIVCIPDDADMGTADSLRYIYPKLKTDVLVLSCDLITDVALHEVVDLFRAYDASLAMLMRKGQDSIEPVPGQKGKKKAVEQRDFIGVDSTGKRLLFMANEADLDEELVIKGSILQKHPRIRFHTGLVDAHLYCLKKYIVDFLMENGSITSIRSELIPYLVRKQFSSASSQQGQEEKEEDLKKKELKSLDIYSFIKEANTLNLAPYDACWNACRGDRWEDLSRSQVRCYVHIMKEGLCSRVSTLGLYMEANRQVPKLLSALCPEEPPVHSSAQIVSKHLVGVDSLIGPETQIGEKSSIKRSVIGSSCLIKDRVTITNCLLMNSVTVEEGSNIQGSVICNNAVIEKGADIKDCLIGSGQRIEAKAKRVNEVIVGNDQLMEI
T1 sequence (Q13144 whole entry, stated change not applied, chain 4 of 4): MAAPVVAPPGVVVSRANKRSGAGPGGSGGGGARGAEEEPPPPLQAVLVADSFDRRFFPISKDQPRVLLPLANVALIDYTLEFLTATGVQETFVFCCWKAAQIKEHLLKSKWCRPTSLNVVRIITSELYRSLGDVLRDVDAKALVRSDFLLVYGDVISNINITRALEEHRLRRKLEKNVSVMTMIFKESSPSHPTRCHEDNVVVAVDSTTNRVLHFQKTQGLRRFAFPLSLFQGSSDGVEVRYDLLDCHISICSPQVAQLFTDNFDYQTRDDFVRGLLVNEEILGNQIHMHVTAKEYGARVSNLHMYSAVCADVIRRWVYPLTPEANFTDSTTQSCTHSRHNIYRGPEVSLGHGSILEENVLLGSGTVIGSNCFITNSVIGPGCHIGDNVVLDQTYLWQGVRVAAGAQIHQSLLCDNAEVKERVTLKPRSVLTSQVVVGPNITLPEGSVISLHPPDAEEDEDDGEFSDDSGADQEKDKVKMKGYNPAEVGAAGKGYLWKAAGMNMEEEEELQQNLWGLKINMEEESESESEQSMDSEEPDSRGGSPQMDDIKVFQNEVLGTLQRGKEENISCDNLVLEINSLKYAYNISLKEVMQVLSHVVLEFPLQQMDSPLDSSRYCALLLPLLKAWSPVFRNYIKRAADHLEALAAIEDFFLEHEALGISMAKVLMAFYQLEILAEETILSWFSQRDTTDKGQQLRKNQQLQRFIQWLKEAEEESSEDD

B1: eIF2Bα homodimer (eIF2Bα2) (natural protein, human)
chain: MDDKELIEYFKSQMKEDPDMASAVAAIRTLLEFLKRDKGETIQGLRANLTSAIETLCGVDSSVAVSSGGELFLRFISLASLEYSDYSKCKKIMIERGELFLRRISLSRNKIADLCHTFIKDGATILTHAYSRVVLRVLEAAVAAKKRFSVYVTESQPDLSGKKMAKALCHLNVPVTVVLDAAVGYIMEKADLVIVGAEGVVENGGIINKIGTNQMAVCAKAQNKPFYVVAESFKFVRLFPLNQQDVPDKFKYKADTLKVAQTGQDLKEEHPWVDYTAPSLITLLFTDLGVLTPSAVSDELIKLYL
notes: eIF2Bα (eIF2B subunit alpha), human; also called eIFBα2; eIF2Bα homodimers; source: E. coli, expressed separately (pJT075 or pMS027), purified as previously described (Tsai et al., 2018)
Binder B1 has an EC50 of 20 nM.

Source: paper PMC7990499 (eLife, 2021)
